Results on one substance are retold here after patent US7091311.

This assay concerns the target murine receptor (mouse) (UniProt Q08351). Kind of assay: cell-based or functional assay.

Sequence of murine receptor (mouse) (Q08351 26-625): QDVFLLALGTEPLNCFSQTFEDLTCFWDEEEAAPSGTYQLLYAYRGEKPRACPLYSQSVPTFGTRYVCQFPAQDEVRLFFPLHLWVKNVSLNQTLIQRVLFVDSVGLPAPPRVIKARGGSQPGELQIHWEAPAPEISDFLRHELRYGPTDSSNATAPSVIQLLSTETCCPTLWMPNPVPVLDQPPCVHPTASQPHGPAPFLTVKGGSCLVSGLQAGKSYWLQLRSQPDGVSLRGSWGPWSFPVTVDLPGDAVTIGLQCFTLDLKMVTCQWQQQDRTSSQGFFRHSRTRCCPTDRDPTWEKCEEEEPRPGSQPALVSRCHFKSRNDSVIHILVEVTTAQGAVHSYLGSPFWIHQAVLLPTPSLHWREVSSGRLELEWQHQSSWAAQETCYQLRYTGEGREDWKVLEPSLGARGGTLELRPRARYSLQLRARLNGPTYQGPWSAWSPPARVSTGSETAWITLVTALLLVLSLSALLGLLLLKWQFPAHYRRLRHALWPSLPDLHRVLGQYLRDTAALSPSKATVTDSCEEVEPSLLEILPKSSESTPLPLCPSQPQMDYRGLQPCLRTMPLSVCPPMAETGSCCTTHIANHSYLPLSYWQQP

With “recombinant human TPO (from UniProt P40225 22-353) (ligand)”, the colonies of 3-5 large cells, mouse marrow in methylcellulose, 1 nM TPO #1-1 was determined as 15 colonies; the colonies of 3-5 large cells, mouse marrow in methylcellulose, 1 nM TPO #1-2 stood at 12 colonies; the colonies of 3-5 large cells, mouse marrow in methylcellulose, 1 nM TPO #2-1 came to 16 colonies; the colonies of 3-5 large cells, mouse marrow in methylcellulose, 1 nM TPO #2-2 was determined as 13 colonies. In addition, the colonies of 6-12 large cells, mouse marrow in methylcellulose, 1 nM TPO #1-1 amounted to 6 colonies; the colonies of 6-12 large cells, mouse marrow in methylcellulose, 1 nM TPO #1-2 amounted to 1 colonies; the colonies of 6-12 large cells, mouse marrow in methylcellulose, 1 nM TPO #2-1 came out at 8 colonies; the colonies of 6-12 large cells, mouse marrow in methylcellulose, 1 nM TPO #2-2 is 3 colonies.
